The record followed here is patent publication US20120253013A1.

This assay deals with HGF receptor c-Met on uninfected HUVECs (human) (UniProt P08581). The experiment in a line: cell-based or functional assay.
Chain of UniProt P08581 (P08581 25-1390): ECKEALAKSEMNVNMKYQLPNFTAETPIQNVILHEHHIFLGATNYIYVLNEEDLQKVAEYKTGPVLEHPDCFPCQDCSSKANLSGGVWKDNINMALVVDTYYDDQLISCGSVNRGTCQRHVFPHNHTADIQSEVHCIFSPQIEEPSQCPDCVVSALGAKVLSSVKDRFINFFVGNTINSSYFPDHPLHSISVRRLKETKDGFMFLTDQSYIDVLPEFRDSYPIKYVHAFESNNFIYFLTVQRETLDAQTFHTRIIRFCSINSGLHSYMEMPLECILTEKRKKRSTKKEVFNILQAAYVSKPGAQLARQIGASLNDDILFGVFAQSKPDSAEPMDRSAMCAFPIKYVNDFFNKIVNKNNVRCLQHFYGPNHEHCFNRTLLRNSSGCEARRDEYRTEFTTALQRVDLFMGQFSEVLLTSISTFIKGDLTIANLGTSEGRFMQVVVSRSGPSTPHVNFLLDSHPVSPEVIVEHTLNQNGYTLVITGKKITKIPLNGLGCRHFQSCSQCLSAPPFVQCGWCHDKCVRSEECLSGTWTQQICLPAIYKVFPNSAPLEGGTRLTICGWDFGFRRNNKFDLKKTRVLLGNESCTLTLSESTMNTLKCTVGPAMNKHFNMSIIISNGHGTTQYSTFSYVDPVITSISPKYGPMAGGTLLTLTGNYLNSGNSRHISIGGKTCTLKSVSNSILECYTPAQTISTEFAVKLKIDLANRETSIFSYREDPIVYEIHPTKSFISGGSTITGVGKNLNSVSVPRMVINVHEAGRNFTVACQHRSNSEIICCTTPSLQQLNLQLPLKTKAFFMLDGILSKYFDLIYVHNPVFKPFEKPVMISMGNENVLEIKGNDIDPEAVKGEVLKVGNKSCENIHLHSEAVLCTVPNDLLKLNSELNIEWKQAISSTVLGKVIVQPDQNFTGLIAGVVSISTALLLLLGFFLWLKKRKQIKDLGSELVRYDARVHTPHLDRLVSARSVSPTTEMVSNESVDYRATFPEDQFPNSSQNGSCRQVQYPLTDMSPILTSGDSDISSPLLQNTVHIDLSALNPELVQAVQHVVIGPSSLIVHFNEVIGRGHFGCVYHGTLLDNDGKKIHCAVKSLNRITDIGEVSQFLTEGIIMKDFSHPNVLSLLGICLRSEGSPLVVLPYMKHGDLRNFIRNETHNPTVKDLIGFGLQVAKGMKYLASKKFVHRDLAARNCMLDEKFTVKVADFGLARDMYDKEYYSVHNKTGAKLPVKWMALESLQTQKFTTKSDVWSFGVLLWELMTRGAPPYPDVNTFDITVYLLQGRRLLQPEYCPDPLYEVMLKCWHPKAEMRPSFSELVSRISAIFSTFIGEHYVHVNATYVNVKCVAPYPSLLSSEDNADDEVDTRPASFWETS

Take “hepatocyte growth factor (HGF) in conditioned medium from Ad-Egr3 infected HUVECs (from UniProt P14210 32-728) (ligand)”: the c-Met receptor phosphorylation on tyrosine 1234/1235 (PathScan Phospho-Met Sandwich ELISA), fold increase against Ad-lacZ was determined as 1.8 fold.
